In patent publication US12551583B2, “Radiolabeled ligands for targeted PET/SPECT imaging and methods of their use” (MEMORIAL SLOAN KETTERING CANCER CENTER, priority 2016, dated 2026):

Tested on: 4T1 orthotopic tumor-bearing BALB/c mice
Experiment: in vivo
Conditions: mouse; for biodistribution, Blood / biodistribution, Bone / biodistribution, Brain / biodistribution, Heart / biodistribution, Kidneys / biodistribution, L. intestine / biodistribution, Liver / biodistribution, Lungs / biodistribution, Muscle / biodistribution, Pancreas / biodistribution, S. intestine / biodistribution, Skin / biodistribution, Spleen / biodistribution, Stomach / biodistribution, Tumor (4T1 tumoral uptake): iv, 4 h
Method: 4T1 orthotopic BALB/c mouse model. The cells were removed from the flasks, concentrated, and resuspended in minimal media for cell counting. The cells were then diluted to contain approximately 1 million cells in 30 μL of media (for orthotopic allografts). Following an MSKCC Institutional Animal Care and Use Committee approved protocol, 8-10 week old BALB/c mice (Charles River Laboratories, Wilmington, MA) were surgically implanted with one million 4T1 cancer cells into the first or the last mammary fat pad of the right side of the animal using aseptic surgical techniques and sterile staple closures while the mice were under anesthetic. Additionally, mice were given injections of meloxicam (24 h pain killer) in the scruff and bupivacaine intradermally prior to surgical incisions. One day post surgery, the mice were again given meloxicam and checked to ensure that the closure was healing. Two and three days post surgery, the mice were checked to ensure that the animals were healthy and recovering well from the surgery. Five to seven days post surgery, the staples were removed. Five to nine days post surgery, the mice were injected with 50-75 μCi (0.9-0.4 nmol) of the respective radiopharmaceutical for in vivo biodistribution or 500-600 μCi (9-11 nmol) for in vivo imaging. The mice receiving ^64Cu-NOTA-pHLIP were sacrificed at 1, 2, 4, 12, 24, 36, and 48 h; the mice receiving [^18F]—AlF-NOTA-pHLIP were sacrificed at 0.5, 1, 2, 4, 6 and 8 h. The 4T1 tumors in this study were purposely used 5-9 days after inoculation to ensure lower tumoral pH. Animal models. Animal studies were conducted according to MSKCC IACUC-approved animal protocol. 4T1 (orthotopic breast cancer allografts of 1×10^6 cells surgically implanted in the mammary fat pad) and B16-F10 (orthotopic melanoma allografts of 1×10^5 cells injected intradermally on the shoulder) tumors were orthotopically inoculated in media in female BALB/c and C57Bl/6 mice (Charles River Laboratories (CRL)), respectively. Additionally, PC3 (3×10^6 cells) or LNCaP (3-6×10^6 cells) tumors were subcutaneously xenografted on the shoulder of athymic nude male mice (CRL). Mice were used once tumor volumes were approximately 90-300 mm^3. In vivo animal PET imaging and biodistribution. Mice were injected with radiolabeled NOTA-pHLIP derivatives i.v. (500-700 μCi/mouse for PET or SPECT imaging studies and 25-100 μCi/mouse for biodistribution studies). All injections were less than 200 μL with <10% EtOH in sterile PBS. PET images were obtained with the mice under anesthesia in an Inveon PET-CT or microPET Focus 120 (Siemens) at 0.5-48 h p.i. All images were analyzed using ASIPro VM (Concorde Microsystems). SPECT images were obtained with the mice under anesthesia in a NanoSPECT/CT Plus at 4-24 h p.i. All SPECT images were reconstructed using HiSPECT and analyzed using InVivoScope. Dissections for ex vivo biodistribution were performed on mice after CO2 asphyxiation or cervical dislocation while anesthetized at reported time points. Weight of the syringe prior to injection and after injection was used to determine the mass of injectate. Activity of the syringe prior to injection and after injection was used to determine the percent of injectate administered. The mass injected was corrected by the percent of radioactivity injected. Four to five aliquots (10 μL) were weighed and counted as internal standards for each study. All of the collected organs were counted using an automatic gamma counter (Wizard 3″, PerkinElmer, Waltham, MA). The total injected dose was found as the mass injected dose×fraction radioactivity injected×internal standard average counts/g. The percent injected dose (% ID) was determined as the counts for the tissue×100/total injected dose. The % ID/g was calculated as the % ID/tissue weight. The average and standard deviation of the % ID and % ID/g was determined using normal methods (n−1) for each set of mice.

Row | SMILES | kidneys-to-large intestine ratio | biodistribution, Blood [% ID/g] | biodistribution, Bone [% ID/g] | biodistribution, Brain [% ID/g] | biodistribution, Heart [% ID/g] | biodistribution, Kidneys [% ID/g] | biodistribution, L. intestine [% ID/g] | biodistribution, Liver [% ID/g] | biodistribution, Lungs [% ID/g] | biodistribution, Muscle [% ID/g] | biodistribution, Pancreas [% ID/g] | biodistribution, S. intestine [% ID/g] | biodistribution, Skin [% ID/g] | biodistribution, Spleen [% ID/g] | biodistribution, Stomach [% ID/g] | biodistribution, Tumor (4T1 tumoral uptake) [% ID/g]
1 | CC(C)C[C@@H](NC(=O)[C@@H](CC(C)C)NC(=O)[C@@H](CC(=O)O)NC(=O)[C@@H](CC(C)C)NC(=O)[C@@H](CC(C)C)NC(=O)[C@@H](CC(C)C)NC(=O)[C@H](NC(=O)[C@@H](CC(=O)O)NC(=O)[C@H](NC(=O)[C@H]1CCCN1C(=O)[C@@H](Cc1ccccc1)NC(=O)[C@@H](CC(C)C)NC(=O)[C@@H](CC(C)C)NC(=O)[C@@H](CC(=O)O)NC(=O)[C@@H](CC(C)C)NC(=O)[C@@H](Cc1ccc(O)cc1)NC(=O)[C@@H](C)NC(=O)[C@@H](CCCNC(=N)N)NC(=O)[C@@H](Cc1c[nH]c2ccccc12)NC(=O)[C@H]1CCCN1C(=O)[C@@H](CC(N)=O)NC(=O)[C@@H](CCC(N)=O)NC(=O)[C@@H](CC(=O)O)NC(=O)[C@@H](CC(=O)O)NC(=O)[C@@H](CS)NC(=O)[C@@H](C)NC(=S)Nc1ccc(CC2CN(CC(=O)O)CCN(CC(=O)O)CCN2CC(=O)O)cc1)[C@H](C)O)[C@H](C)O)C(=O)N[C@H](Cc1c[nH]c2ccccc12)C(=O)O (single isomer, unassigned) [[^18F]—AlF-NOTA-Var3] | 0.52±0.15 | 2.201 ± 0.374 | 0.540 ± 0.119 | 0.107 ± 0.023 | 0.78 ± 0.08 | 8.237 ± 1.106 | 22.05 ± 2.46 | 0.923 ± 0.153 | 2.217 ± 0.380 | 0.282 ± 0.055 | 0.332 ± 0.020 | 0.927 ± 0.152 | 1.126 ± 0.115 | 0.469 ± 0.093 | 0.482 ± 0.223 | 0.923 ± 0.119
2 | CC(C)C[C@@H](NC(=O)[C@@H](CCC(=O)O)NC(=O)[C@@H](CC(C)C)NC(=O)[C@@H](CC(C)C)NC(=O)[C@@H](CC(C)C)NC(=O)[C@H](NC(=O)[C@@H](CCC(=O)O)NC(=O)[C@H](NC(=O)[C@H]1CCCN1C(=O)[C@@H](Cc1ccccc1)NC(=O)[C@@H](CC(C)C)NC(=O)[C@@H](Cc1c[nH]c2ccccc12)NC(=O)[C@@H](CCC(=O)O)NC(=O)[C@@H](CC(C)C)NC(=O)[C@@H](Cc1ccc(O)cc1)NC(=O)[C@@H](CCCNC(=N)N)NC(=O)[C@@H](C)NC(=O)[C@@H](Cc1c[nH]c2ccccc12)NC(=O)[C@H]1CCCN1C(=O)[C@@H](CC(N)=O)NC(=O)[C@@H](CCC(N)=O)NC(=O)[C@@H](CCC(=O)O)NC(=O)[C@@H](CCC(=O)O)NC(=O)[C@@H](CS)NC(=O)[C@@H](C)NC(=S)Nc1ccc(CC2CN(CC(=O)O)CCN(CC(=O)O)CCN2CC(=O)O)cc1)[C@H](C)O)[C@H](C)O)C(=O)O (single isomer, unassigned) [[^18F]—AlF-NOTA-Var7] | 0.55±0.19 | 2.292 ± 0.277 | 0.571 ± 0.202 | 0.118 ± 0.011 | 0.78 ± 0.06 | 7.759 ± 0.658 | 22.08 ± 6.02 | 1.089 ± 0.066 | 2.325 ± 0.212 | 0.325 ± 0.073 | 0.373 ± 0.051 | 0.776 ± 0.196 | 1.377 ± 0.148 | 0.485 ± 0.029 | 0.593 ± 0.153 | 1.105 ± 0.125
